From publication PMC5621659

Assays:
Experiment in all cases: ELISA
[1] = target: recombinant human insulin receptor (IR) (human) (UniProt P06213)
[2] = target: C-terminal truncated apoE3 (aa1-186)
[3] = target: C-terminal truncated apoE4 (aa1-186)

Substance | percent reduction of insulin-IR binding at 16 μg/ml [1] | percent reduction of binding against FL apoE [2] | percent reduction of binding against FL apoE [3]
recombinant human apoE4 (from UniProt P02649 19-317) (natural protein) | 50% |  | 
recombinant human insulin receptor (IR) (from UniProt P06213 28-1382) |  | 50% | 30%
